Experimental findings from publication PMC4178959 (The Journal of Cell Biology, 2014) are described below.

B1: GST–procaspase 8 (full-length procaspase 8 fused to GST) (natural protein, UniProt Q14790 1-479, looked up)
chain: MDFSRNLYDIGEQLDSEDLASLKFLSLDYIPQRKQEPIKDALMLFQRLQEKRMLEESNLSFLKELLFRINRLDLLITYLNTRKEEMERELQTPGRAQISAYRVMLYQISEEVSRSELRSFKFLLQEEISKCKLDDDMNLLDIFIEMEKRVILGEGKLDILKRVCAQINKSLLKIINDYEEFSKERSSSLEGSPDEFSNGEELCGVMTISDSPREQDSESQTLDKVYQMKSKPRGYCLIINNHNFAKAREKVPKLHSIRDRNGTHLDAGALTTTFEELHFEIKPHDDCTVEQIYEILKIYQLMDHSNMDCFICCILSHGDKGIIYGTDGQEAPIYELTSQFTGLKCPSLAGKPKVFFIQACQGDNYQKGIPVETDSEEQPYLEMDLSSPQTRYIPDEADFLLGMATVNNCVSYRNPAEGTWYIQSLCQSLRERCPRGDDILTILTEVNYEVSNKDDKKNMGKQMPQPTFTLRKKLVFPSD
B2: His6-BakΔTM (recombinant His-tagged Bak lacking the transmembrane domain, aa 1–186) (domain or fragment, UniProt Q16611 1-186, looked up)
chain: MASGQGPGPPRQECGEPALPSASEEQVAQDTEEVFRSYVFYRHQQEQEAEGVAAPADPEMVTLPLQPSSTMGQVGRQLAIIGDDINRRYDSEFQTMLQHLQPTAENAYEYFTKIATSLFESGINWGRVVALLGFGYRLALHVYQHGLTGFLGQVTRFVVDFMLHHCIARWIAQRGGWVAALNLGNG

Several values for one entry are separate records, joined by “and”; a condition that tells them apart may be missing. Equal entries are not always repeated.

Data set [1] concerns the target B2. Description: SPR. In general terms: SPR reads the build-up and loss of mass on a sensor chip optically.
The target in data set [2] is GST-Casp8p41 (UniProt Q14790 1-355). The data set is described as follows: SPR.
Data set [3] concerns the target GST-Casp8p41 V150E/L157K (UniProt Q14790 1-355, V150E | L157K). The data set is described as follows: SPR.
Data set [4] addresses GST-Casp8p41 V150A/L157A (UniProt Q14790 1-355, V150A | L157A). Description: SPR.
Data set [5] concerns the molecule itself. The data set is described as follows: cross-linking.

As for RPEIWIAQELRRIGDEFNAYYARRVF [Bim BH3 peptide], the binding result in data set [1] was “binds”.
Consider B1, for which the “fold less tight binding than GST-Casp8p41” value in data set [1] stood at 100 fold.
Usually Kd stands for the constant that tells how readily two partners part at equilibrium. Low values mean a tighter complex, high ones a looser complex. As usually defined, the stoichiometry N is a count of units in the complex or per binding partner. As for B2, the Kd is 16 nM and 19 nM in data set [2]; 400 nM in data set [3]; 22 nM in data set [4]. In addition, the “stoichiometry N” value in data set [5] came out at 2.
